From patent publication US20120058906A1 (published 2012) come the findings set out here.

In test [1] the target is T1, rHuman P-Cadherin/Fc Chimera, CF (R&D Systems Cat#861-PC) (human, UniProt P22223 108-654).
T1 construct: Bought Fc chimera; Fc part of the bought chimera not given
The experiment in a line: MSD ECL titration, Fab 2383 nM, blank 344.

Test [2] deals with T2, rHuman Notch-1/Fc Chimera, CF (R&D Systems Cat#3647-TK) (human, UniProt P46531 19-526).
T2 construct: Bought Fc chimera; Fc part of the bought chimera not given
The experiment in a line: MSD ECL titration, Fab 2383 nM, blank 344.

The target of test [3] is T3, rHuman IGF-1 sR (insulin-like growth factor-1 soluble receptor), CF (R&D Systems Cat#391-GR) (human, UniProt P08069 31-932).
T3 construct: Bought soluble receptor; also called IGF-R1
As to the kind of experiment: MSD ECL titration, Fab 2383 nM, blank 344.

The target of test [4] is T4, rHuman HGF R/c-MET/Fc Chimera, CF (R&D Systems Cat#358-MT/CF) (human, UniProt P08581 25-932).
T4 construct: Bought Fc chimera; also called HGF R/Fc; Fc part of the bought chimera not given
The experiment in a line: MSD ECL titration, Fab 2383 nM, blank 344.

Test [5] has as its target T5, rHuman EGF R/Fc Chimera, CF (R&D Systems Cat#344-ER) (human, UniProt P00533 25-645).
T5 construct: Bought Fc chimera; Fc part of the bought chimera not given
The experiment in a line: MSD ECL titration, Fab 2383 nM, blank 344.

In test [6] the target is T6, rHuman ErbB2/Fc Chimera, CF (R&D Systems Cat#1129-ER) (human, UniProt P04626 23-652).
T6 construct: Bought Fc chimera; also called HER2/neu; Fc part of the bought chimera not given
As to the kind of experiment: MSD ECL titration, Fab 2383 nM, blank 344.

Test [7] concerns the target T7, rHuman CD44/Fc Chimera, CF (R&D Systems Cat#3660-CD) (human, UniProt P16070 21-220).
T7 construct: Bought Fc chimera; Fc part of the bought chimera not given
The experiment in a line: MSD ECL titration, Fab 2383 nM, blank 344.

Test [8] deals with T8, rHuman Erythropoietin R/Fc Chimera, CF (R&D Systems Cat#963-ER) (human, UniProt P19235 25-250).
T8 construct: Bought Fc chimera; also called EPO R/Fc; EPOR; Fc part of the bought chimera not given
T8 sequence: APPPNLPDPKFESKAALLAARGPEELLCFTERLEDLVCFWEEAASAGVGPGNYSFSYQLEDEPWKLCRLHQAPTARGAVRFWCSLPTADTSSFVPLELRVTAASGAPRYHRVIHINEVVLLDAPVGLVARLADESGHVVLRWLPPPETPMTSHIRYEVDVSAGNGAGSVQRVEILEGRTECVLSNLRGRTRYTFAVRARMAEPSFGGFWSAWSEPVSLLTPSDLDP
As to the kind of experiment: MSD ECL titration, Fab 2383 nM, blank 344.

For test [9], the target named is T9, rHuman CD44/Fc Chimera, CF (R&D Systems Cat#3660-CD) (human, UniProt P16070 21-220).
T9 construct: Bought Fc chimera; Fc part of the bought chimera not given
The experiment in a line: ECL (MSD Multi-Spot) binding assay, antigen spotted on plate; Fab 240 nM; blank spot 316.

Test [10] has as its target T10, rHuman Notch-1/Fc Chimera, CF (R&D Systems Cat#3647-TK) (human, UniProt P46531 19-526).
T10 construct: Bought Fc chimera; Fc part of the bought chimera not given
Described as above.

In test [11] the target is T11, rHuman Erythropoietin R/Fc Chimera, CF (R&D Systems Cat#963-ER) (human, UniProt P19235 25-250).
T11 construct: Bought Fc chimera; also called EPO R/Fc; Epo R; Fc part of the bought chimera not given
T11 sequence: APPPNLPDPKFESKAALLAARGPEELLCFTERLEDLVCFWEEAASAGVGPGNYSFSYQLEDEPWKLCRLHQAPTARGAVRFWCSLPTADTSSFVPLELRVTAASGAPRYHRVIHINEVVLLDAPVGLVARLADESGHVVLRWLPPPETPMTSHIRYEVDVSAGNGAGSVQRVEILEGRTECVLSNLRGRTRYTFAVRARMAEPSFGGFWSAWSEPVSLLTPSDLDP
The description is as above.

Test [12] concerns the target T12, Recombinant Human DLL4 (R&D Systems Cat#1506-D4/CF) (human, UniProt Q9NR61 27-524).
T12 construct: Bought recombinant protein; also called delta-like protein 4; rHuman DLL4
The test is described as above.

The target in test [13] is T13, rHuman P-Cadherin/Fc Chimera, CF (R&D Systems Cat#861-PC) (human, UniProt P22223 108-654).
T13 construct: Bought Fc chimera; also called CDH3; Fc part of the bought chimera not given
Described as above.

The target in test [14] is T14, rHuman P-Cadherin/Fc Chimera, CF (R&D Systems Cat#861-PC) (human, UniProt P22223 108-654).
T14 construct: Purchased Fc chimera; not shown: Fc portion of the purchased chimera
The experiment in a line: MSD ECL multi-spot plate, antigen immobilized; Fab 0.32 nM; blank spot 513.

In test [15] the target is T15, rHuman IGF-1 sR (IGF-1 sR), CF (R&D Systems Cat#391-GR) (human, UniProt P08069 31-932).
T15 construct: Purchased soluble receptor; also called insulin-like growth factor-1 soluble receptor; IGF-R1
The test is described as above.

Test [16] deals with T16, rHuman HGF R/c-MET/Fc Chimera, CF (R&D Systems Cat#358-MT/CF) (human, UniProt P08581 25-932).
T16 construct: Purchased Fc chimera; also called HGF R/Fc; not shown: Fc portion of the purchased chimera
The description is as above.

Test [17] concerns the target T17, rHuman ErbB2/Fc Chimera, CF (R&D Systems Cat#1129-ER) (human, UniProt P04626 23-652).
T17 construct: Purchased Fc chimera; also called HER2/neu; not shown: Fc portion of the purchased chimera
The description is as above.

In test [18] the target is T18, rHuman Notch-1/Fc Chimera, CF (R&D Systems Cat#3647-TK) (human, UniProt P46531 19-526).
T18 construct: Purchased Fc chimera; not shown: Fc portion of the purchased chimera
The test is described as above.

The target of test [19] is T19, rHuman CD44/Fc Chimera, CF (R&D Systems Cat#3660-CD) (human, UniProt P16070 21-220).
T19 construct: Purchased Fc chimera; not shown: Fc portion of the purchased chimera
The description is as above.
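Note: blank spot per well as comparator with Hit at signal to blank ratio of 4 or more.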

B1: Fab VH1-46_IGHD6-6*01_IGHJ1*01 & L6_IGKJ1*01 (Fab, V domains shown)
VH: QVQLVQSGAEVKKPGASVKVSCKASGYTFTSYYMHWVRQAPGQGLEWMGIINPSGGSTSYAQKFQGRVTMTRDTSTSTVYMELSSLRSEDTAVYYCAREEYSSSSAEYFQHWGQGTLVTVSS
VL: not shown
notes: Expressed in E. coli as Fab: heavy chain with CH1 plus Flag and His tags from Plasmid A, kappa light chain constant region from Plasmid C; also called Fab No. 1
Regarding B1, the ECL signal in [1] stood at 728; in test [2], 690; in [3], 527; in test [4], 762; in test [5], 621; in test [6] it was 454. Further, the ECL signal in [7] was 559; in [8] it was 658.

B2: Fab VH6-1_IGHD3-3*01_IGHJ4*01 & V4-3_IGLJ4*01 (Fab, V domains shown)
VH: QVQLQQSGPGLVKPSQTLSLTCAISGDSVSSNSAAWNWIRQSPSRGLEWLGRTYYRSKWYNDYAVSVKSRITINPDTSKNQFSLQLNSVTPEDTAVYYCAREYYDFWSGYYTDYFDYWGQGTLVTVSS
VL: QPVLTQPTSLSASPGASARLTCTLRSGINLGSYRIFWYQQKPESPPRYLLSYYSDSSKHQGSGVPSRFSGSKDASSNAGILVISGLQSEDEADYYCMIWHSSASFVFGGGTQLIIL
notes: Tested as a Fab made in E. coli; also called IGHV6-1*01
For B2, the ECL signal in test [9] was 470; in test [10], 368; in [11], 478; in [12], 1270; in [13], 383.

B3: Fab VH5-51_IGHD5-18*01>3_IGHJ4*01_G100R & V3-4_IGLJ1*01 (Fab, V domains shown)
VH: EVQLVQSGAEVKKPGESLKISCKGSGYSFTSYWIGWVRQMPGKGLEWMGIIYPGDSDTRYSPSFQGQVTISADKSISTAYLQWSSLKASDTAMYYCARRRYSYGYDYFDYWGQGTLVTVSS
VL: QTVVTQEPSFSVSPGGTVTLTCGLSSGSVSTSYYPSWYQQTPGQAPRTLIYSTNTRSSGVPDRFSGSILGNKAALTITGAQADDESDYYCVLYMGSGISYVFGTGTKVTVL
notes: It was expressed as a Fab: CH1 with tags from Plasmid A and lambda CL from Plasmid E; also called Fab No. 23
Regarding B3, the ECL signal in test [14] amounted to 656 ECL signal; in [15], 1250 ECL signal; in [16], 1290 ECL signal; in [17], 1480 ECL signal; in [18], 983 ECL signal; in test [19] it was 877 ECL signal.
